Experimental data taken from paper PMC10435448, “A RAD51–ADP double filament structure unveils the mechanism of filament dynamics in homologous recombination”.

Target: hRAD51 wild-type (Homo sapiens, UniProt Q06609 1-339)
Test: cryo-EM structure (3.1 A); 1 mM ADP, 5 mM CaCl2, 2.5 mM MgCl2; ssDNA density weak and diffuse; EMSA: 35 mM Tris-HCl pH 7.5, 1 mM DTT, 10 mM MgCl2, 100 ng/ul BSA, 50 mM KCl, 2 mM ADP, 37 C 10 min, 2% agarose TAE at 4 C; cryo-EM: 35 mM Tris-HCl pH 7.5, 108
Conditions: protein: recombinant; tags: none stated (pET11, untagged purification); chain copies: 10; single strand

hRAD51 wild-type, sequence (Q06609 whole entry): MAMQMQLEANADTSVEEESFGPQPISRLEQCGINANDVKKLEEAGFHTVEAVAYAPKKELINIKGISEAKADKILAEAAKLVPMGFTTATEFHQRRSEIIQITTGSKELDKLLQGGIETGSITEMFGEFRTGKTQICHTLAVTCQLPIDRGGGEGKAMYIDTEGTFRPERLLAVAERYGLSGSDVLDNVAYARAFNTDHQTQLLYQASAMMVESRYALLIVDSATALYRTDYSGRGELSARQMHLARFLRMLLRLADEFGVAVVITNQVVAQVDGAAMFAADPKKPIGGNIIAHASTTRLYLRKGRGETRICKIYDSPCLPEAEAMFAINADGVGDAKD

B1: Oligo 1 (80 nt ssDNA), unlabeled (ssDNA)
DNA: TTATGTTCATTTTTTATATCCTTTACTTTATTTTCTCTGTTTATTCATTTACTTATTTTGTATTATCCTTATCTTATTTA
Does B1 bind?
Result: binds
